Experimental data reported in US20120237948A1 (SHIONOGI, published 2012).

Columns and labels:
Assay in all cases: competitive ELISA against the biotin-labeled SEQ ID NO: 2 peptide
[1] = biological target: T1, MMP13-undigested human type III collagen (human, UniProt P02461 154-1221)
T1 construct: also called non-digested collagen (type III)
T1 sequence (looked up): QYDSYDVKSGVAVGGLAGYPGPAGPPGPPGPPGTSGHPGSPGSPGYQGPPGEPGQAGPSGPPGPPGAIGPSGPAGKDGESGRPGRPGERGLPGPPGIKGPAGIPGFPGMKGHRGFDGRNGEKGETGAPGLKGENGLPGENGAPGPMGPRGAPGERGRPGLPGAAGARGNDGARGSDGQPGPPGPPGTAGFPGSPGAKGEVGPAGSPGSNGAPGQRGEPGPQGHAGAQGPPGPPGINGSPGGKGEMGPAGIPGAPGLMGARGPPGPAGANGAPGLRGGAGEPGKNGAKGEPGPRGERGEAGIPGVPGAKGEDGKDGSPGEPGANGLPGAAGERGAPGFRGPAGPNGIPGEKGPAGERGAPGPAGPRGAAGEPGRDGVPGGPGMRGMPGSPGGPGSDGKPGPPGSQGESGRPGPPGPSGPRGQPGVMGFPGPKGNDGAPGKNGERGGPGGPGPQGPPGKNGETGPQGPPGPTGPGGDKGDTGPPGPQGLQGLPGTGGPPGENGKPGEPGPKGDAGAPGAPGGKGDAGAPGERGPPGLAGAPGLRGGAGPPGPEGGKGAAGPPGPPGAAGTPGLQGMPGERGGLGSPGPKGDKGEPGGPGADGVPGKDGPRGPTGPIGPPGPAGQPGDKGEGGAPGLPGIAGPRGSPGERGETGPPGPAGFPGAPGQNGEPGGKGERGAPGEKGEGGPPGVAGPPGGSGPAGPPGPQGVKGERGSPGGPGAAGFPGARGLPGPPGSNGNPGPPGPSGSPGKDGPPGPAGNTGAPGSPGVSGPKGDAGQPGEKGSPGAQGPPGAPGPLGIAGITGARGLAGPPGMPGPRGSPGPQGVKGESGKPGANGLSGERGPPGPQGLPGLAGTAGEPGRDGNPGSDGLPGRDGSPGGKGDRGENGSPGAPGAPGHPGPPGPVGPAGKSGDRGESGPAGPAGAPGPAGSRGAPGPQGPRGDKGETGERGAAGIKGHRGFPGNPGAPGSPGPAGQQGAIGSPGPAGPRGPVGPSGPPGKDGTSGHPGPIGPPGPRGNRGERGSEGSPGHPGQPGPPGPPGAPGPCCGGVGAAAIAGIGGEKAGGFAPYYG
Procedure: (§1) To 10 μg/10 μl of a solution of human type I, type II, or type III collagen (Chondrex), 10 μl of 2 × enzyme reaction buffer (50 mM Tris buffer, pH 7.6, containing 0.3 M NaCl, 10 mM CaCl₂, and 0.005% Brij35) was added for neutralization. To the solution, 0.2 μg of activated human MMP13 (human Pro-MMP13 (Calbiochem), activated by incubation with 1 mM APMA at 37° C. for 2 hours), and the mixture was allowed to react overnight at 37° C. Subsequently, stop solution (EDTA, final concentration 5 mM) was added to prepare the natural type neoepitope solution.
(§2) To a 384-well microtiter plate (Nunc), 35 μl of Tris buffer (50 mM Tris-HCl, pH7.5) containing 0.35 μg of anti-mouse IgG-Fc antibody (Jackson Immuno Research) was added and incubated overnight at 4° C. for adsorption. Each well was washed once with 90 μl of washing solution (physiological saline containing 0.01% Tween20), and then 0.1 ml of Block Ace (Dainippon pharmaceuticals) was added. The plate was allowed to stand for 2 hours at room temperature for blocking (an anti-mouse IgG antibody-solid-phased plate). After each well was washed once with 90 μl of the washing solution, 10 μl of buffer A containing 6.4-250 nM of the natural type neoepitope solution was mixed with 10 μl of buffer A containing 1 ng/ml of the biotin-labeled neoepitope peptide (SEQ ID NO: 2) and 200 ng/ml of Streptavidin-HRP, and 10 μl of buffer A containing 15 ng/ml of the anti-neoepitope antibody (20A10). Then the mixture was allowed to react at 4° C. for 16 hours.
(§3) Subsequently, each well was washed three times with 90 μl of the washing solution, and 25 μl of TMB-Substrate Chromogen (DAKO) was added and incubated for 30 minutes at room temperature for color development, followed by the addition of 25 μl of 0.05 M sulfuric acid to terminate the reaction. Then, the absorbance at 450 nm was measured.

[2] = biological target: T2, MMP13-undigested human type II collagen (human, UniProt P02458 182-1241, limits assumed)
T2 construct: Triple helix of three chains; also called native type II collagen; non-digested collagen (type II)
Procedure: as §1, §2, §3

[3] = biological target: T3, MMP13-undigested human type I collagen (human, UniProt P02452 162-1218; P08123 80-1119)
T3 construct: The chain composition comes from general knowledge; also called non-digested collagen (type I)
Procedure: as §1, §2, §3

T2 sequence (P02458 182-1241 limits assumed): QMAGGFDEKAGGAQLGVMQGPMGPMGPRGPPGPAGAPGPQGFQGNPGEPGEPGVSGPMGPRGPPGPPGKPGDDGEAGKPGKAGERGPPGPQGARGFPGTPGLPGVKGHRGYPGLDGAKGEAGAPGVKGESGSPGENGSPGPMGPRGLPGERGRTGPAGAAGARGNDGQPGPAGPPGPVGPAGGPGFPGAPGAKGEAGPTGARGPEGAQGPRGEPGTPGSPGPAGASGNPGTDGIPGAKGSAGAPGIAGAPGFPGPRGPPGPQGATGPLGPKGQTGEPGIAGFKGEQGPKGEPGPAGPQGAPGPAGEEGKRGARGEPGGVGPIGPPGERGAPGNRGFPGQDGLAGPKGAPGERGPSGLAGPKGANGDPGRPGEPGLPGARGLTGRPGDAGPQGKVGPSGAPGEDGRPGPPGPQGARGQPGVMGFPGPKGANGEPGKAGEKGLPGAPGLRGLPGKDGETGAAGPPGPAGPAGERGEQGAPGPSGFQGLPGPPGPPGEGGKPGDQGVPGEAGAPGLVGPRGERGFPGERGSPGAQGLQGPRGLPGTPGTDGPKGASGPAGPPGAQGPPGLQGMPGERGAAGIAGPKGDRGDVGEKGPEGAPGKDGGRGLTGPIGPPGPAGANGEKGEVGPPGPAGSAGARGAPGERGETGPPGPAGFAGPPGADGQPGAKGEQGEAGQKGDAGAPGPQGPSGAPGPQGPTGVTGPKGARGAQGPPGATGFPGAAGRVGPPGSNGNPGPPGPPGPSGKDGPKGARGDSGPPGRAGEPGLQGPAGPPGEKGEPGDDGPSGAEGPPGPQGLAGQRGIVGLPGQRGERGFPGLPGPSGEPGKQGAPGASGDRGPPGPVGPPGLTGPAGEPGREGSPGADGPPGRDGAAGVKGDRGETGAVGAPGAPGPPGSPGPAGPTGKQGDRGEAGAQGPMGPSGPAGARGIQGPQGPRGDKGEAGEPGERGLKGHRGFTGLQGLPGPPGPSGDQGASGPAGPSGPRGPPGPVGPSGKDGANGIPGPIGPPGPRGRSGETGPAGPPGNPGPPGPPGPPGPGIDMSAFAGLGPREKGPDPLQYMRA
T3 sequence (P02452 162-1218, chain 1 of 2): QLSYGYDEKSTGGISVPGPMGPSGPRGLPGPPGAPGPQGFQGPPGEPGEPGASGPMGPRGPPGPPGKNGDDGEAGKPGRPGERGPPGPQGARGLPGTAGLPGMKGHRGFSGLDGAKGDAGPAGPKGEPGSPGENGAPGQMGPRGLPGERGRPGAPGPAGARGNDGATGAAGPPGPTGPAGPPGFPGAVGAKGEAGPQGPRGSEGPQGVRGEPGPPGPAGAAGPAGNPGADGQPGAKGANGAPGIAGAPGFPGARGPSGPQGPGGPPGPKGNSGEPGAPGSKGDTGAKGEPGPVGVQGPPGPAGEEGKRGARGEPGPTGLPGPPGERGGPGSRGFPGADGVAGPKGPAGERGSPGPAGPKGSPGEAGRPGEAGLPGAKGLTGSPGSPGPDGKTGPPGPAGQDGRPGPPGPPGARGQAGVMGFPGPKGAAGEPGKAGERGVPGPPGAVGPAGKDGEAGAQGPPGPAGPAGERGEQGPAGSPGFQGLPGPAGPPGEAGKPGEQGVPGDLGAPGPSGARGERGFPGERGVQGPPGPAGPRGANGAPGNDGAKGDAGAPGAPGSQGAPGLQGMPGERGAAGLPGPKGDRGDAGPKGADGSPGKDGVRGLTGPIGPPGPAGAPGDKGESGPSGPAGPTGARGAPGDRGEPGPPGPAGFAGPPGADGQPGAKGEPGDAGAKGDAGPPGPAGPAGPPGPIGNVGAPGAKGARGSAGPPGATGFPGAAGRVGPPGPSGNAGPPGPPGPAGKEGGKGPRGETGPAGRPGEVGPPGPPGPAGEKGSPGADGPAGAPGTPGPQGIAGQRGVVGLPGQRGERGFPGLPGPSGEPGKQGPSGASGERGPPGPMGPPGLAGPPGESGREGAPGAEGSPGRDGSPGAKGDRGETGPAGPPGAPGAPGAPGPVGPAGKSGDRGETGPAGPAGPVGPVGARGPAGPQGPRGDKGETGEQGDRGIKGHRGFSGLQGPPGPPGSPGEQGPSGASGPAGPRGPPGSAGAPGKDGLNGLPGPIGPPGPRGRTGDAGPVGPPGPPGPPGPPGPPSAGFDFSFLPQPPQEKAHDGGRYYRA
T3 sequence (P08123 80-1119, chain 2 of 2): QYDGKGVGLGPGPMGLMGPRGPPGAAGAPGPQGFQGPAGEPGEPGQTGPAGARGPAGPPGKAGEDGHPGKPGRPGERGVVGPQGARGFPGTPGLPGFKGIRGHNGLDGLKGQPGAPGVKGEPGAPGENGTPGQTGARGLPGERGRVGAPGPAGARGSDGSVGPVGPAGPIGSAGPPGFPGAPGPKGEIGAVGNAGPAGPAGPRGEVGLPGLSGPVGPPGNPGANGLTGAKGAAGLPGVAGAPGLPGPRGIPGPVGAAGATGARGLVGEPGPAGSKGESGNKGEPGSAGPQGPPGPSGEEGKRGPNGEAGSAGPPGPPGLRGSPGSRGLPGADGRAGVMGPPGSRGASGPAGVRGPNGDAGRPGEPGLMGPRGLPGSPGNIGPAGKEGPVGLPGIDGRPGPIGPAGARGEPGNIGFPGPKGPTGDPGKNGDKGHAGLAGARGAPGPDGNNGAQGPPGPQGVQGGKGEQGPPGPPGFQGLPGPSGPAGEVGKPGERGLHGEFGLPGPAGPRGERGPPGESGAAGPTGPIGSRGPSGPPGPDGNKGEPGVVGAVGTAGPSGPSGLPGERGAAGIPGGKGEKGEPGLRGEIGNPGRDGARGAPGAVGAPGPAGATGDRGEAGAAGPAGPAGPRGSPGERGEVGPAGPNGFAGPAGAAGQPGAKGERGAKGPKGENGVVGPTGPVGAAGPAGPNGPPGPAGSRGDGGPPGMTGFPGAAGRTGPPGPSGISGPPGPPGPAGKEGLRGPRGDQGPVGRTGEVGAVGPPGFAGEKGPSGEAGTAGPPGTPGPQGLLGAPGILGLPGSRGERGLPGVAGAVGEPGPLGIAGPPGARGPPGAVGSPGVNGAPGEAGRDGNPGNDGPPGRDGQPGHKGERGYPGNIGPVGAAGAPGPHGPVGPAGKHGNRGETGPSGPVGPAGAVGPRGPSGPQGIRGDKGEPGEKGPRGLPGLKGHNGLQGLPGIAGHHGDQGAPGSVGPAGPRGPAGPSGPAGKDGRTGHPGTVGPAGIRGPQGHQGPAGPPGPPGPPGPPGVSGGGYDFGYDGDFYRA

binding result [1]: no binding | binding result [2]: no binding | binding result [3]: no binding
B1: anti-neoepitope antibody 20A10 (antibody, IgG1, V domains shown)
VH: QIQLVQSGPELKEPGETVRISCKASGYTFTKYGINWVKQAPGKGLEWMAWINTYSGMTTYADDFKGRFAFSLETSANTAYLQINHLKNDDTATYFCARSLGYDYGGFAYWGQGTLVTVSA
VL: DVLLTQTPLSLPVSLGDQAFISCRSGQTLVHDNENTYFHWYLQKPGQSPKLLIYKISNRFSGVPDRFSGSGSGTDFTLKISRVEPEDLGIYFCSQNTHVPFTFGSGTKLEIKR
notes: also called HRP-labeled 20A10
